Laboratory results from paper PMC10359629, “Thumb-domain dynamics modulate the functional repertoire of DNA-Polymerase IV (DinB)” (Nucleic Acids Research, 2022).

B1: DNA polymerase IV (DinB), DinB^1-351 (enzyme, E. coli, UniProt Q47155 1-351, looked up)
chain: MRKIIHVDMDCFFAAVEMRDNPALRDIPIAIGGSRERRGVISTANYPARKFGVRSAMPTGMALKLCPHLTLLPGRFDAYKEASNHIREIFSRYTSRIEPLSLDEAYLDVTDSVHCHGSATLIAQEIRQTIFNELQLTASAGVAPVKFLAKIASDMNKPNGQFVITPAEVPAFLQTLPLAKIPGVGKVSAAKLEAMGLRTCGDVQKCDLVMLLKRFGKFGRILWERSQGIDERDVNSERLRKSVGVERTMAEDIHHWSECEAIIERLYPELERRLAKVKPDLLIARQGVKLKFDDFQQTTQEHVWPRLNKADLIATARKTWDERRGGRGVRLVGLHVTLLDPQMERQLVLGL
modifications: biotin (EZ-Link NHS-PEG4-Biotin, conditions favouring the amino-terminal α-amino group) in the BLI assay; isotope-labelled ([U-2H,15N] or MALVI^proS methyl-labelled) in the NMR titrations
notes: E. coli DNA polymerase IV (DinB), residues 1-351, from pET28b(+)-DinB (Genscript); No removal of the His6 tag is described for DinB and DinBΔPAD; also called full-length DinB; MALVI^proS-DinB; source: E. coli BL21 (λDE3), purified (Ni2+-Histrap, heparin, SEC)
B2: DinBΔPAD (DinB^1-230) (domain or fragment, E. coli, UniProt Q47155 1-230, looked up)
chain: MRKIIHVDMDCFFAAVEMRDNPALRDIPIAIGGSRERRGVISTANYPARKFGVRSAMPTGMALKLCPHLTLLPGRFDAYKEASNHIREIFSRYTSRIEPLSLDEAYLDVTDSVHCHGSATLIAQEIRQTIFNELQLTASAGVAPVKFLAKIASDMNKPNGQFVITPAEVPAFLQTLPLAKIPGVGKVSAAKLEAMGLRTCGDVQKCDLVMLLKRFGKFGRILWERSQGID
modifications: biotin (EZ-Link NHS-PEG4-Biotin, conditions favouring the amino-terminal α-amino group) in the BLI assay; [U-2H,15N]-labelled in the NMR titration
notes: E. coli DNA polymerase IV (DinB), residues 1-230 (Fingers, Palm, Thumb); stop codon introduced at amino acid 231; also called Biotin-DinBΔPAD; source: E. coli BL21 (λDE3), purified (Ni2+-Histrap, heparin, SEC)

What was measured:
[1] = biological target: T1, RNA polymerase core enzyme (subunits α2ββ'ω) (UniProt P0A7Z4 1-329; P0A8V2 1-1342; P0A8T7 1-1407; P0A800 1-91); assay: BLI; Octet RED96, 303 K; 0.5 μM Biotin-DinB immobilised on streptavidin biosensors, blocked with biocytin; RNAP core as analyte in 2-fold serial dilution; 50 mM KPi pH 6.5, 150 mM NaCl, 25 mM MgCl2, 1 mM TCEP, 0.5% BSA; double referencing; settings: both partners purified
[2] = biological target: T1, RNA polymerase core enzyme (subunits …); assay: BLI; Octet RED96, 303 K; 0.5 μM Biotin-DinBΔPAD immobilised on streptavidin biosensors, blocked with biocytin; RNAP core as analyte in 2-fold serial dilution; 50 mM KPi pH 6.5, 50 mM NaCl, 25 mM MgCl2, 1 mM TCEP, 0.25% BSA; double referencing; settings: both partners purified

| Binder | Kd [1] [nM] | Kd [2] [nM] |
| --- | --- | --- |
| B1 | 6.4 ± 0.07 |  |
| B2 |  | 5.9 ± 0.05 |
